assay: soluble on expression in E. coli; label from the status in PepcDB or PDB records

Sequence	soluble on expression in E. coli
MGSDKIHHHHHHMNIAIFGAGSTGCYLAGQLCISELQVSLICRPAIKQKIIANNGITLTDYNGFKQTIMPQALITDINQESSIYGKFDVVFVTLKCHQVSSIANQLMAITHDNSSIIFMQNGLGSFDSIKDSLDHYSLLQGITPFNVLQLPNAVFHKGTEGVFTLQANPHTIAIQSALVNHGFGCDIEADFTPMIYGKLLLNLNNALNAVTDLPIKQQLSHYKNRRILAKAMKEWLAVCEAADIQLHQYTKVKPSWLPTILLLPNVLFTVLAKQMLDIDPKARSSMWEDIQAKRKTEVDYINGAVVSIGKKYGIKTPVNQAIVEQIKQLEQRH	not soluble
MGSDKIHHHHHHMNIFDNILSSATIFKNRDVLRHSYTPEKLPHREEQINQLALLLSPMLRGGTPSNIFIYGKTGTGKTATVLFVARQLEEASRKAKLNVAVHYINCEIVDTAYRVLASLARKFGSNVPMTGWPTDQVYEEVKKALERRGTRVVVILDEIDKLVKKAEEALYGLTRINSELENSSICIVGISNNLKFKEYLDARILSSLSEEEIVFPPYNAEQLEDILQQRAKLAFEDGVLEDGVIQLCAAIAAQEHGDARKALDLLRVSAEIAERERDSMVRVEHVKKAVRKIETDYMIETVRTLPVHSKILLYSMSLISENSPKFTTGEVYCVYKKLCGKVGVDPLTQRRISDLISELDMLGILNSVVISKGRYGRTREMKLEADEKVLRKALEEDYRLQNLRKFEGELKKLANLNLFQF	not soluble
MGSDKIHHHHHHMNILDGIKSLALKLGSKQDQTYYARGLSLTDDLMQIEALWRDNWIANKVCIKRSEDMVRNWRDIFSNDLKSEQLDEFTKLERRLKLRETLTKALQWSSLYGAVGLLVVTDTINITSPLQPTERLKRLIILPKWKISPTGQRDDDVFSPNFGRYSEYTITGGTQSVSVHHSRLLIINANDAPLSDNDIWGVSDLEKIIDVLKRFDSASANVGDLIFESKIDIFKIAGLSDKISAGLENDVAHVISAVQSIKSATNSLLLDAENEYDRKELSFGGLKDLLTEFRNAVAGAADMPVTILFGQSVSGLASGDEDIQNYHESIHRLQETRLRPVLEVLDTLLCNELFGGQPDDWWFEFLPLTVVKQEQQVNMLNTFATAANTLIQNGVVNEYQVANELRESGLFANISADDIEEMKNANELARNFEEPEGESTQVQASEDE	not soluble
MGSDKIHHHHHHMNILFINSIGRNKFGGGEKWMVNAAKGLTDRGHNVVLASKRNSRLLDYAAGSGVRTEVMEIRGDFSPLATLKIAAWMKRHQTDILICNLNKDVRVAGLAARLVGRPVVLARHGMLLCSKKWKHKLSLTRLTDGIVTNSRTIREAYAGYGWFSENFVKVIYNGLTIPAEVTAFDFASRYPGKKIIYSAGRLSKQKGFEYLIDAAAMLKRKRDDLLFAISGEGKLEIELKNRVAALGLKGSFVFLGFTPDIYPFLKGCDLFVLASLFEGMPNVVMEAMAMQKPVIATDVNGARELMGASPESLVCDTGLIIPPKNPAAIAEAIEQIIDNPALLEAYGKAGHQRVETHFTVPIMIDNLEKHLQSKLAEKAGRC	not soluble
MGSDKIHHHHHHMNILLVYKEDYPWDVRVEKIALSLISRGHDVTIVARNRQCSKTTETVNGIEIVRLPALFKPDGLLNKLLNLPVWFNPFWIWTLRSALRGKPGALIIVRDLPLVKTALLVARGARAKIMLDMAEVYPYMYESGRQFSKGTNFESMIKSPALAARYEAKVLPKIDHTLVMIEESRDRLLQMGLSPQRVSIVSNTPPLDKFSGNTHQHQGRKLRLVYVGFLTKLRGLDLLIEAAYEYVKLGNEPSSLKIDIVGKGAEREHLIALVRDLKLEESVTIHGWLDHQRVDELMAQANVGALTYRVCPHWNHTIPNKIFDYMLAGLPVLATEVTPINRIINETKSGLVCRDLDIRDIAEKLQTLRCPELRSTLGNNGVNAVRAKYNWANDEQRLHAAVNSIAP	not soluble
MGSDKIHHHHHHMNILVTGANGFVGQTLCPALERAGLRAVRAVRISTRYEEISVGEVDGETSWSRVFDEGIDGVVHLAAKVPLAEKEKEAADSYHRVNTLGTVRLARECAARGIRRFVFISTVKVLGEECDKPFQADDSAVPSDAYAISKWEAEQSLRQISAETGMEVVILRPPLVYGPGVGGNFLRLLQMVDRRIPLPLGAIHNRRSLIYLGNLVDIIRLCLTHPDAASKTFMVSDGEDVSTPGLIRRIGSVLGHGSFLLPVPAAWMRRVGDLLGKRSAIDRLTGSLSVDSMPVQKELGWLPPYGMQAGLALTVQWYRQHKPETKS	not soluble
MGSDKIHHHHHHMNKELFCIENLRVAYPQRSGEELQWAIDDVSFTLQPGERMGLVGESGCGKSTLGRAAMRLLPPSSLVEGRVTFQGKSVFDLTPNELRKFRGEAVALIFQDPMTRLDPLMTIGNHCIETLQAHAPELSAKEAKEKALATLEKVKIPASRWGQYPHEFSGGMRQRVAIALALLLNPKLIVADEPTTSLDVTVSAQILQELTRLCSEENMALLLISHDLAMVAEYCSRIGVMYNGKMVEMGTTESVFKNPQHEYTRSLLKAALHIQAVDEGSSEASQSPIPSPQSPILRITELKQYYTIEPNFVERLFKAESQTIKAVDGINLELYPGEILGLVGESGCGKSTLSRTILQLIRPTSGKVEFLGQDLTKLSRQEIRACRRQIQMVFQDPHACLNPAMTVGESIADPLLIHHLADAAKAKEQVLWMLQKVGLTPPEVYYQRYPSDLSGGQQQRVAIARALITRPKMLICDEPVSMLDASVQSQVLDLMLQLKEEFELTYLFITHDLWLARFLCDRIAVMHGGKIVELGETKQIFAHPQHPYTQTLLAAAPLLARA	not soluble
MGSDKIHHHHHHMNKQPLAFRMRPKKIEDVVGQQHLIGKGKIIWRMVQAHRLSSMILYGEPGTGKTSIASAIAGSTELSFRILNAATDGKKELQEVAEEGKMSGSVILLLDEIHRLDKTKQDFLLPHLESGRIVLIGATTENPYLSVTPAIRSRTQIFHVEALSEKDIKTAINRALSDKENGLGNYNIKLDDRAKNHLSTATNGDLRSALNGLELAVLSTKAVGKEKEIHITLPIIEETIQRKSMSGDKNGDAHYDVISAFQKSIRGSDADAGIYYLGRILEAGDLTIAARRLLVIAYEDVGLANPNAAAHAVQAVTAALQLGLPEARIPLANAVIELALSPKSNSAYGAINSAIGDIEKGNTGDVPIHLKNTRNWGKTKNQ	not soluble
MGSDKIHHHHHHMNKQTEHDTREHLLATGEQLCMQRGFTGMGLSELLKTAQVPKGSFYHYFRSKEAFGVAMLERHYACYHQRLTAHFTSGPGNHRDRLLAWYQETLKQFCQQGAISGCLTVKLSAEVCDLSEDMRSTMDKGAQEIMALLARALEDGRNSHCLHFTGQPLPQAQVLYALWLGANLQAKISRSAAPLENALAHVKTIIATPEQ	not soluble
MGSDKIHHHHHHMNKQVSTRGTKEKALRLNLDDKKYGTIVEIGAGQEVARNFFVAGAAAGTIAKTMSAYDMTFSDAIYGVQQDGRYVSKARVQAMMEQELDLVIERVGDVRSKSSRYFTYAATVAAKSFNRNNECHAWCGVRVQMYPGAEPSNIVVHVRMFDDNAEAQQQALGVLGVNLIYAAYYYFEDPKKIIDSLTDDLKANRIEIDCIEFQGPYFEDIDSRAKNIHLIRSWKTRAIMFKPDGSVAVPAEMLYKKNVLTIRGSFKPVTKLNVDMIEQGEKAFAELEGVSKDNTIVIAEISLNDSHGKDANMSSTDIIERVKLLNLLGYNVMVSDYTRYFSLRAYFRQYTKLQIGIVVGMINIKQIFDETFYRGLEGGILEGFGKLFPDHTRVFVYPELSETGELKDLTTVNVPNNLRYLYRHLLDNGFITSIESSDINLFSYFSREILKQIAKGSDEWQQALPQPVIDEIISKKLFGYRG	not soluble
MGSDKIHHHHHHMNKYNQLGSVRYNQLGRIKYNSRGAREVKPLFNRLAQARPVILDQNRRRLAILENADNIILEQEINGIDQVTFTLPWKDEKRKYLVNENLVQLVNSIYIIRRVSVKRSGLSPAEIEVYAEALWYDLQFAEPVEHARWESATPEVIMKDILDGTGWRVGKVTITRERTLELEAGFTNRLKALYELPSLFGGELHFNTDTMTVDFTEPVGRKSGAAIAYSKNLEEVEAIYDTEELVTKLYLYGKNNMSIADANDGVPYLTDFSFTDKVRVRVTKDERFTNPYHLKERGEEALKVLARPRSSYVLRAADLSALSGMSHEEFFLGDEVLVYDKELGINVRTRIVSWKYNVIQPWNTELQLESKQPSLSDLLTGIQEGAEFLYSEDAVERDEMLNLHVFNYLMNSRGDDGFNYWTNDGWELDAENGYSGNASFRATAQPGVKKSLRQTIYPAHRDSYSLSLRVATENLRVGNGRVGVYVKFKYQDGTEEEPIWIPLSEDE	not soluble
MGSDKIHHHHHHMNLAAFEAFVKVMETGSISVAADQLFITQPAVTKRIHSLEEYFGVKLFESAGRGVQATHAAHSLLPKVKSWLNELRDIHHTLSHEQTQIQGRLKIGTSHHIGLHHLPAPLKHFVQQFPQVTLDVHFVDSEQAHEQVLAGDLELAFLTLPPSGDERLNYITIWNDPLVFVAAPFHPLAQKKNLTLQDLIEYPSLLPAAQTYTAQITLAEFEKQGLKPKITMSNNPLESIRMLVSIGLGWSVLPKTLLNQDMQQLDLNVEMNRQLGMVWHPARTQSRAMQELIKMMQE	not soluble
MGSDKIHHHHHHMNLKQLRYFVTICEEGQITAAAKRLHIKQPLLSYEIKQLELELETSLFIRGPRGISLTDAGKVLKPYAEQITELSDVAKTKVKYLDKGISGSLSIGSISSSINKLPNQRLLKLKKYYPNIAINVIEGNTYKLLGYLEKGLIDLAILRTPFSSKGVIGYYFDKEPMVAVSAKNNQKDTVGLPDKYLKIDDLSNKPLIIYRRFKELIENTFRNLGFNPLIVVRCDDARTALDGAKVGFGTAIVPKSAILQVENEGEKDIEFREIKEKALETQLAIMWRRDDSFNPLTENFLKMFIGK	not soluble
MGSDKIHHHHHHMNLKRRRLLDLKSEIFEKIIKIEGNKIDIKPPKKIPQPILSPSREGFDSRNTYNPAVIKEKDRIVMLYRAESKEDKLTGRIGLAISYDGINFFRHPEPIIEPEYKWESVGVEDPRIVKVGKTYYMTYTGYDGKTARLCLATSKNMLTWKKHGPIFEGFEYKKNNIKGWTKSGAILPKKLEKGNFKGNYLMYFGDSNIWMAVSKDLVNWEYMKEPVLSPREGYFDNVLVEPGPPLFETSYGIALIYNSAGRYGDKLKYKVGVVIFDKEYPDKVVARTETPLMVPEYEWELYGHVNNVVFVEGMVEHENKILLYYGGADRHIGLAYWTTDL	not soluble
MGSDKIHHHHHHMNLLPLFLAVAEEDNFRAAADRLGVTRSAVSQGIRRLEDAFGTTLVTRTTRSVRLTEAGERLREALSQPLSDIGTALDRVAGEDEPRGLLRIAVTSIAEQFLSGPLIASFAQAHPKVAIDVTVTDEEFDIVAAGFDAGVRLGEVIEQDMIAVPLTGDQRELAVAAPTYLAVRGTPAHPRELVHHRCIGWRRAPNVAPYRWEFEENGVPFDVAVEPQITTNDLRFMLRSALCGAGITFATEETFRPFVETGELVPLLQDFLPPFPGFFLYFPQRRNMTPKMRALIEHVRRWR	not soluble
MGSDKIHHHHHHMNLLTDIFCQKPKRETAMTTETHYDTQAANSCYYQVQGSEVEIFNFAKTHDLPVLIKGPTGCGKTRFVEFMAESLGRELVTVSCHDDLTAADLLGRHLVSSEGTFWQDGPLTRAVRHGGICYLDEIIEARKDTTVVLHSLSDHRRELHLERTGEVIKAHKDFMLVVSYNPGYQNMMKGLKPSTRQRFVAMSFDYPSPEQEAEILVHEAGITTELAHTLVKLGADIRRLSDIDLKAAVSTRLLIYAAKMMSSGCHAQMACLHCIIEPLTDEKQTIEALTQLVNAHF	not soluble

Source: the DeepSol protein solubility set
